Results: patent publication US20180215829A1 (published 2018)

B1: VH clone 2.1 (VHH)
VHH: QVQLVQSGAEVKKPGASVKVSCKASGYPFTSYDINWVRQATGQSLEWMGWMNPNSGDTVYAQKFQGRVTMTRNTSISTAYMELSSLRSEDTAVYFCARGRRDDWKNNYWGQGTLVTVSS
B2: VH clone 1.2 (VHH)
VHH: EVQLVESGGGLVQPGRSLRLSCAASGFTFDDYAMHWVRQAPGKGLEWVSGISWNSGRMDYADSVKGRFTISRDNAKNSLYLQMNSLRAEDTALYYCAKEKGLGYCRGGSCSYFDYRGQGTLVTVSS
B3: VH clone 1.1 (VHH)
VHH: QVQLVESGGGLVQPGRSLRLSCAASGFTFDDYAMHWVRQAPGKGLEWVSGISWNSGRMDYADSVKGRFTISRDNAKKSLYLQMNSLRAEDTAMYYCAKEKGLGFCRGGSCSYFDYRGQGTLVTVSS

Each binder was assayed against recombinant human IL-17RA Fc fusion protein (R&D Systems 177-IR-100) (UniProt Q96F46 33-320) (assay: BIAcore).
Sequence of recombinant human IL-17RA Fc fusion protein (R&D Systems 177-IR-100) (Q96F46 33-320): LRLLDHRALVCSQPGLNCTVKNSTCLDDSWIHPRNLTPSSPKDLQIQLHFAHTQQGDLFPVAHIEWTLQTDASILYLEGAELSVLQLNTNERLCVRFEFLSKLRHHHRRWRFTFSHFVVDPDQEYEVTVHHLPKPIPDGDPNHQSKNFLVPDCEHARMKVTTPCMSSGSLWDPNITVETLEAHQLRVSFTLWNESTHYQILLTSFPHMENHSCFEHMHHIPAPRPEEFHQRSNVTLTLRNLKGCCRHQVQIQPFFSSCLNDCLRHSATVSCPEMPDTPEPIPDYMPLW

Going from B1 to B2, the koff falls from 0.00384 s⁻¹ to 5.79e-05 s⁻¹ (66-fold).

For B3, the koff was 5.83e-05 s⁻¹.
